Results taken from PMC8246641.
Ends that are not written are not given here.

Target: taxol-stabilized microtubules (MTs) (UniProt P02550)
Assay: co-sedimentation

Kd: 996 nM
B1: GST-ABS6^329–387 (DUF4005 domain of ABS6/AtIQD16, N-terminal GST tag) (domain or fragment)
chain: {GST}-RSASPRIPCSPSSMQPNYMSATESAKAKARTQSTPRRRPMTAKKRLCYAEEESLRSPSF
modifications: cysteine pairing not given here
